# Experimental data reported in publication PMC4764579, “Structural insights into the mechanism of activation of the TRPV1 channel by a membrane-bound tarantula toxin” (eLife, 2016).
# Target: rat TRPV1, full-length channel expressed in HEK293 cells (rat) (UniProt O35433)
# Sequence (O35433 whole entry): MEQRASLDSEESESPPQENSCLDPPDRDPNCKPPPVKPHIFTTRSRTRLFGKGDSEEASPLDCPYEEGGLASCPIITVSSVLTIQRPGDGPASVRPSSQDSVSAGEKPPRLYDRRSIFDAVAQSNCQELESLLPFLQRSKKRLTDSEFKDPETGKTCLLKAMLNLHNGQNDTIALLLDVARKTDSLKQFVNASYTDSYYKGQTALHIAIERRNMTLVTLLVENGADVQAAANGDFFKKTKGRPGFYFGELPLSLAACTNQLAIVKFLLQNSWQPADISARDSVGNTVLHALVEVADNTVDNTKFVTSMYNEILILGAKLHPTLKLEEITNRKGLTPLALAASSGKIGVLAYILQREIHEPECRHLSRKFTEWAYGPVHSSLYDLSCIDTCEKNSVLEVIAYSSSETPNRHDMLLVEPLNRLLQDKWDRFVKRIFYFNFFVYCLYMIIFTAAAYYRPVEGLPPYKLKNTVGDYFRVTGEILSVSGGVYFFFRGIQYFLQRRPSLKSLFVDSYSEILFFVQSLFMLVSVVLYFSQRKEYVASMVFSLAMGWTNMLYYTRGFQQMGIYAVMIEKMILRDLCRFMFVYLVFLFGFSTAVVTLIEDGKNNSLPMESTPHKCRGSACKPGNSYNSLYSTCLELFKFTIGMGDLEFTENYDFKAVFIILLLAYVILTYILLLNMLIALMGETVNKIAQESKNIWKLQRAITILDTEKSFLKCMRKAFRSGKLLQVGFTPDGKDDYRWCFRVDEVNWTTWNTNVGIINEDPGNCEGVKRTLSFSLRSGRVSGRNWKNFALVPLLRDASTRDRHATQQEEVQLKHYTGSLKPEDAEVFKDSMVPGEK
row,Binder,"fractional dissociation 1 min after toxin removal (current 1 min after removal divided by steady-state current with toxin), whole-cell patch clamp at +120 mV, TRPV1 in HEK cells"
1,bivalent K1 (K1K1) (protein) GDCAKEGEVCSWGKKCCDLDNFYCPMEFIPHCKKYKPYVPVTTDCAKEGEVCSWGKKCCDLDNFYCPMEFIPHCKKYK,0.3
2,bivalent K2 (K2K2) (protein) NCAKEGEVCGWGSKCCHGLDCPLAFIPYCEKYRPYVPVTTNCAKEGEVCGWGSKCCHGLDCPLAFIPYCEK,0.96
